Laboratory results from article PMC4415891, “Adamtsl2 deletion results in bronchial fibrillin microfibril accumulation and bronchial epithelial dysplasia – a novel mouse model providing insights into geleophysic dysplasia” (Disease Models & Mechanisms, 2015).

Molecular target: T1, ADAMTSL2 (a disintegrin and metalloproteinase with thrombospondin motifs-like 2), recombinant (human, UniProt Q86TH1 23-951)
T1 construct: ADAMTSL2, secreted glycoprotein; source: recombinant, purified as described previously (Koo et al., 2007)
T1 sequence (looked up): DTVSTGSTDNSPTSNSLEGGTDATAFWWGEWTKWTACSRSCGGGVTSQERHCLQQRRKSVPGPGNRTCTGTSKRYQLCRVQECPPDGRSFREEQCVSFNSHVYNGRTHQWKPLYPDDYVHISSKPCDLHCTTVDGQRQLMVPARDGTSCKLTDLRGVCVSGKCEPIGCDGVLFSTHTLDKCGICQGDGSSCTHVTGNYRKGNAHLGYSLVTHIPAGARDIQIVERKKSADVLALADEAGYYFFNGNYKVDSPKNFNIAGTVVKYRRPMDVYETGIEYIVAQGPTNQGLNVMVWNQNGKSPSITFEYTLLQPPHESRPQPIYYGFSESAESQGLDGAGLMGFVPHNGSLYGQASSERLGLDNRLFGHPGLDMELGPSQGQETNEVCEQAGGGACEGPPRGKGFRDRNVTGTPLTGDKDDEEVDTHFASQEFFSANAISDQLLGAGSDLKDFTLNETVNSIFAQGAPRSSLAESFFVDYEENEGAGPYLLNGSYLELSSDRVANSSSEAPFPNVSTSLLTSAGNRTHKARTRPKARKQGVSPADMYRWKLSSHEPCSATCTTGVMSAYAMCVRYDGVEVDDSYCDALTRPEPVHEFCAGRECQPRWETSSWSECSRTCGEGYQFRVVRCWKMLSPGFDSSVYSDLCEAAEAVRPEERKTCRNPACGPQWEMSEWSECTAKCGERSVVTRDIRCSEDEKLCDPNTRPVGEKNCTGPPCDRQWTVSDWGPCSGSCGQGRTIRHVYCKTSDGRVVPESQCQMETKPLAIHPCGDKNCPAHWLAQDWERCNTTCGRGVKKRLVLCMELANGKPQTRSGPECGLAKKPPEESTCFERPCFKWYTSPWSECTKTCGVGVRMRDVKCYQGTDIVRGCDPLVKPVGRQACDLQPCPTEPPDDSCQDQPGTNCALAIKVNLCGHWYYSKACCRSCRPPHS
Test: SPR; ADAMTSL2 immobilised by amine coupling on a CM5 chip (about 1500 RU), fibrillin fragments injected; BIAcore 3000; 25°C; 10 mM HEPES pH 7.4, 150 mM NaCl, 2 mM CaCl2, 0.005% surfactant P20; 20 ul/min; n=2
Conditions: both partners purified

B1: N-terminal half of fibrillin-1 (FBN1), recombinant fragment (domain or fragment)
chain: not shown
  Kd: 14.3 nM

B2: C-terminal half of fibrillin-1 (FBN1), recombinant fragment (domain or fragment)
chain: not shown
  Kd: 8 nM
